The values below come from patent US20240174746A1 (Alector, published 2024).

One assay addresses T1, human TMEM106B (human, UniProt Q9NUM4 2-274).
T1 construct: Full-length cDNA transiently transfected into HEK293 cells; also called huTMEM106B
Nature of the assay: flow cytometry, HEK293 cells transiently transfected with human TMEM106B.

In a further assay the target is T2, mouse TMEM106B (mouse, UniProt Q80X71 2-275).
T2 construct: Full-length cDNA transiently transfected into HEK293 cells; also called muTMEM106B; murine TMEM106B
Description: flow cytometry, HEK293 cells transiently transfected with murine TMEM106B. A general note: Flow cytometry measures light scatter and fluorescence of single cells or particles in a stream.

The target in assay [1] is T3, cynomolgus (cyno) TMEM106B (cynomolgus, UniProt Q9NUM4 2-274 (human entry)).
T3 construct: Full-length cDNA transiently transfected into HEK293 cells
Description: flow cytometry, HEK293 cells transiently transfected with cyno TMEM106B.
Description: (§1) For screening of the hybridoma cell culture supernatants, humanTMEM106B-transfected HEK293 cells were aliquoted in 96-well round bottom plates (2×10⁵ cells per well) and incubated with 50 μL of hybridoma cell culture supernatant on ice for 30 minutes. […] Cell sorting was performed on a FACS Canto system (BD Biosciences) or iQue (Intellicyt), with sort gates drawn to exclude dead (i.e., propidium iodide-positive) cells. Median fluorescence intensity (MFI) of anti-mouse-APC MFI on TMEM106B+ HEK293 cells was calculated for each clone, and those displaying a signal of at least 2-fold over background compared to a secondary-antibody only well were taken forward for further analysis and characterization.

Description for human TMEM106B: as §1
Description for mouse TMEM106B: as §1

B1: TM-63 (antibody, V domains shown)
VH: QVQLQQPGAELVKFGASVKLSCKASGYTFTSFWMHWVKQRPGQGLEWIGNIDPSDSETHYSQKFKDKATLTVDRSSNTAYIQLSSLTSEDSAVYYCARSSNWDNFDYWGQGTTVTVSS
VL: DIVMTQASPSVSVTPGESVSISCRSSQSLLHVNGNTYLYWFLQRPGRSPRLLIYRMSNLASGVPDRFSGSGSGTAFTLRISRVEAEDVGVYYCMQHLQYPFSFGSGTKLEMK
notes: Purified from mouse hybridoma
On to B1, for which the “fold-change in binding over parental HEK293 cells” value (“fold-change in binding” for short) stood at 7.12 fold with human TMEM106B, 0.62 fold in the assay with mouse TMEM106B and 8.24 fold in assay [1].

B2: TM-64 (antibody, V domains shown)
VH: QVQLQQPGAELVKPGASVKLSCKASGYTFTSYWMHWVKQRPGHGLEWIGNIDPSDSDTHYNQNFRGKATLTVDKFSTTAYMHLSSLTSEDSAVYYCARSRGGTYDYGEAMDYWGQGTSVTVSS
VL: DIVMTQAAPSVPVTPGESVSISCRSSKSLLHTNGNTYLFWFLQRPGRSPQLLIYRMSNLASGVPDRFSGSGSGTAFTLRISRVEAEDVGVYYCMQHLEYPFTFGSGTKLEIK
notes: Purified from mouse hybridoma
As for B2, the results for the “fold-change in binding” value (with human TMEM106B; in the assay with mouse TMEM106B; in assay [1]) were 12.8 fold, 1.07 fold and 7.12 fold, respectively.

B3: TM-66 (antibody, V domains shown)
VH: EVMLVESGGALVEPGGSLKLSCAASGITFSNYAMSWIRQTPEKRLEWVATIGSVGSYTYYPDSVKGRFTISRDNARNTLYLQMSSLRSEDTAMYYCARQEGSSHFDYWGQGTTLTVSS
VL: DVVVTQTPPSLPVSFGDQVSISCRSSQSLVNSYGKTFLSWYLHKPGQSPQLLIYGISNRFSGVPDRFSGSGSGTVFTLKISTIKPEDLGMYYCLQGTHPPLTFGAGTKLEMK
notes: Purified from mouse hybridoma
B3: the entries for the “fold-change in binding” value (with human TMEM106B; with mouse TMEM106B; in assay [1]) were 5.03 fold, 4.07 fold and 7.13 fold, respectively.

B4: TM-65 (antibody, V domains shown)
VH: QVQLQQPGAEFVKPGASVRLSCKTSGYTFTSSWMHWVKQRPGQGLEWIGEINPKNGGTNYNEKFKTKATLTVDKSSNTAYMQLSSLTSEDSAVYYCTIPTWFTYWGQGTLVTVSS
VL: DIQMNQSPSSLSASLGDTITITCRASQNINIWLSWYQQKPGNVPKLLIYKASNLHTGVPSRFSGSGSGTGFTLTISSLQPEDIATYYCLQGQSYPYTFGGGTKLGIK
notes: Purified from mouse hybridoma
B4: the “fold-change in binding” value in the assay with human TMEM106B worked out at 4.14 fold; with mouse TMEM106B, 1.35 fold; in assay [1] it was 2.15 fold.

B5: TM-82 (antibody, V domains shown)
VH: QVQLQQSGAELVRPGTSVRVSCKASGYAFTNYLIEWIKQRPGQGLEWIGVINPGSGITDYSEKFKGKARLTADKSSSTAYMQLSSLTSDDSAVYFCTRSPFITTVVADYWGQGTTVTVSS
VL: DVVVTQTPLSLPVSFGDQVSISCRSSQSLANTYGNTYLSWYLHTPGQSPQLLIFGISNRFSGVPDRFSGSGSGTDFTLKISTIKPEDLGVYYCLQGTHPPRTFGGGTKLEMK
notes: Purified from mouse hybridoma
In the case of B5, the “fold-change in binding” value was found to be 0.88 fold with mouse TMEM106B and 1.49 fold in assay [1].

B6: TM-54 (antibody, V domains shown)
VH: QVQMQQSGPVLVKPGASVTLSCKASGYTFTTYDLNWVKQRPGQGLEWIGWIYPRGGSTEYNEKFKGKATLTVDTSSSTAYMELHSLTSEDSAVYFCAKYSIYAMDYWGQGTSVTVSS
VL: DVLMTQTPLSLPVSLGDQASISCRSSQSIVHGNGNTYLEWYLQKPGQSPKLLIYKVSNRFSGVPDRFSGSGSGTDFTLKISRVEAEDLGVYYCFQGSHVPWTFGGGTKLEMK
notes: Purified from mouse hybridoma
On to B6, for which the “fold-change in binding” value with human TMEM106B was determined as 15.6 fold; with mouse TMEM106B, 1.17 fold; in assay [1] it was 6.27 fold.

B7: TM-90 (antibody, V domains shown)
VH: QVHLQQSGPELVKPGASVKLSCKASGYPFTSYDINWVKQRPGQGLEWIGWIYPRDGNAKYNEKFKGKATLTVDTSSSTAYMELHSLTSENSAVYFCARVSDYHGGYGMDYWGQGTSVTVSS
VL: DVLMTQTPLSLPVSLGDQASISCRSSQSFVHGNGNTYLEWYLQKPGQSPKLLIYKVSHRFSGVPDRFSGSGSGTDFTLKITRVEAEDLGVYYCFQNSHVPHTFGGGTKLEIK
notes: Purified from mouse hybridoma
Take B7: the results for the “fold-change in binding” value (with human TMEM106B; in assay [1]) were 1.25 fold and 1.32 fold, respectively.

B8: TM-60 (antibody, V domains shown)
VH: QVQLQQSGPELVKPGASVKLSCKASGYTFTSYDINWVKQRPGQGLEWIGWIYPRDGNTQYIEKLKGKATLTVDTSSSTAYMELHSLTSEDSAVYFCARWIFYAMDYWGQGTSVTVSS
VL: DVLMTQTPLSLPVSLGDQASISCRSSQSIVHGNGNTYLEWYLQKPGQSPKLLIYKVSNRFSGVPDRFSGSGSGTDFTLKISRVEAEDLGVYYCFQGSHLPYTFGGGTKLEIK
notes: Purified from mouse hybridoma
As to B8, the entries for the “fold-change in binding” value (with human TMEM106B; with mouse TMEM106B; in assay [1]) were 4.39 fold, 0.43 fold and 2.63 fold, respectively.

B9: TM-76 (antibody, V domains shown)
VH: QVTLKESGPGILQPSQTLSLTCSFSGFSLSTSGMGVSWIRKPSGKGLEWLAHIFWDDDKRYNLFLKSRLTVSKDTSSNQVFLMITSVDTTDTATYYCARMGRQRDYFDYWGQGTSLTVSS
VL: QIILTQSPAIMSASLGEEITLTCSASLSISYVHWYQQKSGASPKLLIYGTSNLASGVPSRFSGSGSGTFYSLTISSVEAEDAADYYCHQWSIYRTFGGGTKLEMK
notes: Purified from mouse hybridoma
In the case of B9, the “fold-change in binding” value came to 6.52 fold with human TMEM106B, 0.7 fold in the assay with mouse TMEM106B and 4.35 fold in assay [1].

B10: TM-62 (antibody, V domains shown)
VH: QVQLQQPGTELVRPGSSVKLSCKAAGYTFTRYWMHWVKQRPIQGLEWIGNIDPSDSETQYNPKFKDKATLTVDRSSSTAYMHLSSLTSEDSAVYYCARLTTLDYAMDYWGQGTSVTVSS
VL: QIVLTQSPAIMSASPGEKVTISCSASSSVSYMYWYQQKAGSSPKPWIHRTSNLASGVPARFSGSGSGTSYSLTIRSMEAEDAATYYCQQYHSYPPTFGVGTKLELK
notes: Purified from mouse hybridoma
Consider B10, for which the “fold-change in binding” value with human TMEM106B was found to be 11.4 fold; with mouse TMEM106B, 0.86 fold; in assay [1] it was 2.93 fold.

B11: TM-73 (antibody, V domains shown)
VH: QVQLQQPGAELVKPGASVKLSCKASGYTFTSHWMHWVKHRPGQGLEWIGEIDPSDSYTYYNQKFKGKATLTVDKSSSTVYMQLSSLTSEDSAVYYCARNYHGSGPPFAHWGQGTLVTVSS
VL: QIVLTQSPAIMSASPGEKVTLTCSASSGISYIYWYQQRPGSSPRLLIYDTSNLASGVPVRFSGSGSETSYSLTISRLEAEDAATYYCHQWRSYPPTFGGGTKLEIR
notes: Purified from mouse hybridoma
Turning to B11, the “fold-change in binding” value in the assay with human TMEM106B worked out at 2.57 fold; with mouse TMEM106B, 0.59 fold; in assay [1], 1.15 fold.

B12: TM-83 (antibody, V domains shown)
VH: QVQLQQPGTELVKPGALVKLSCKASGYTFTTYWIHWVKQRPGQGLEWIGNINPSNGNTKNNERFKTKATLTVDKSSSTAYMQLSSLTSEDSAVYYCVRGDYYGTSYPFWGQGTLVTVSS
VL: DVVMTQTPLSLPVSLGDQASISCRSSQSLVHSNGITYLHWYLQKPGQSPKLLIYKVSNRFSGVPDRFSGSGSGTDFTLKISRVEAEDLGVYFCSQSTHVPYTFGGGTKLEIK
notes: Purified from mouse hybridoma
In the case of B12, the “fold-change in binding” value in the assay with human TMEM106B came to 0.42 fold; with mouse TMEM106B it was 9.91 fold.

B13: TM-72 (antibody, V domains shown)
VH: QVQLQQPGAELVKPGTSVKLSCKASGSTFTNYWMHWVMQRPGQGLEWIGNIDPSDSDTHYNQKFKDRAKLTVDKSSSTAYMQLSGLTSEDSAVYYCARSRGGYYDYGEAMDYWGQGTSVTVSS
VL: DIVMTQAAPSVPVTPGESVSISCRSSKSLLHTNGNTYLFWFIQRPGQSPHLLIYRKSNLASGVPDRFSGSGSGTAFTLRISRVEAEDVGVYYCMQHLEYPFTFGSGTKLEIK
notes: Purified from mouse hybridoma
Consider B13, for which the “fold-change in binding” value with human TMEM106B stood at 3.81 fold; in the assay with mouse TMEM106B, 0.23 fold.

B14: TM-59 (antibody, V domains shown)
VH: QVQLQQSGAELAKPGASVKLSCKASGYTFISYWMHWVKQRPGQGLEWIGYVNPSSGYTKNNQKFKDKATLTADKSSSTAYMQLSSLTYEDSAVYYCAREGGSISDWYFDVWGTGTTVTVSS
VL: DIVMTQAAPSVPVTPGESVSISCRSSKSLLHSNGNTYSYWFLQRPGQSPQLLIYRMSNLASGVPDRFSGSGSGTAFTLRISRVEAEDVGVYYCMQHLEYPYTFGGGTKLEIK
notes: Purified from mouse hybridoma
Consider B14, for which the “fold-change in binding” value with human TMEM106B was found to be 8.71 fold; with mouse TMEM106B, 0.42 fold.

B15: TM-56 (antibody, V domains shown)
VH: QVHLQQSGAELAKPGASVKLSCKASGYTFTSYWMHWVKQRPGQGLEWIGYINPSSGYSKYNQRFKDKATLTADKSSTTAYMHLSSLTYADSAVYYCTREGGSISDWYFDVWGTGTTVTVSS
VL: DIEMTQAAPSVPVTPGESVSISCRSSKSLLQNNGNTYLYWFLQRPGQPPQLLIYRMSNLASGVPDRFSGSGSGTAFTLRISRVEAEDVGVYYCMQHLEYPYTFGGGTKLEIK
notes: Purified from mouse hybridoma
In the case of B15, the “fold-change in binding” value came to 9.35 fold in the assay with human TMEM106B, 0.47 fold with mouse TMEM106B and 4.49 fold in assay [1].

B16: TM-61 (antibody, V domains shown)
VH: QVQLQQSGAELAKPGASVKLSCKASGYTFTNYWMNWVKQRPGQGLEWIGYINPSSDYTKYNQNFKDKATLTADKSSSTAYMQLNSLTYEDSAVYYCTRWGGSRSYWYFDVWGAGTTVTVSS
VL: DIVMTQSPSSLSASAGEKVTMSCKSSQSLLNSGNQKNYLAWYQQKPGQSPKLLIYGASTRESGVPDRFTGSGSGTDFTLTISSVQAEDLAVYYCQNDSNYPFTFGGGTKLEMK
notes: Purified from mouse hybridoma
As to B16, the “fold-change in binding” value in the assay with human TMEM106B came to 5.07 fold; with mouse TMEM106B, 0.68 fold; in assay [1] it was 5.15 fold.
